Data: patent publication US20220106398A1 (IGM BIOSCIENCES, published 2022)

T1: human His6-GITR (human, UniProt Q9Y5U5 26-162)
T1 construct: His6-tagged recombinant protein; also called hGITR-His; human GITR-His
T1 sequence: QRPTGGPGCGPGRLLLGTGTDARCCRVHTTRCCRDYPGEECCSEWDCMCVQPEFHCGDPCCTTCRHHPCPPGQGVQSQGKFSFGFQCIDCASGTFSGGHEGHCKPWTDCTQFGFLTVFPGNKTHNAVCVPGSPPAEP

T2: mouse His6-GITR (mouse, UniProt O35714 20-153)
T2 construct: His6-tagged recombinant protein; also called mGITR-His; mouse GITR-His
T2 sequence: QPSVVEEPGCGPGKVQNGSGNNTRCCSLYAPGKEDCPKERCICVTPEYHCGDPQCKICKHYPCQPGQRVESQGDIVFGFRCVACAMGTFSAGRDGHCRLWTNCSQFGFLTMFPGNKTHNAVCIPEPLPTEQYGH

T3: cynomolgus monkey His6-GITR (cynomolgus monkey)
T3 construct: His6-tagged recombinant protein; also called cGITR-His; cyno GITR-His
T3 chain: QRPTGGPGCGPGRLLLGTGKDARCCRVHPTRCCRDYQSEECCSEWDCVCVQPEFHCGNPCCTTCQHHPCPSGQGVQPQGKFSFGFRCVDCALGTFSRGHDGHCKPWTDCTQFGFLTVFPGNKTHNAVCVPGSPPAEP

B1: GITR-Mab-17 scFv (scFv, V domains shown)
VH: QVQLVQSGAEVKKPGASVKVSCKASGYTFTSYGISWVRQAPGQGLEWMGWMNPNSGNTGYAQKFQGRVTMTRDTSTSTVYMELSSLRSEDTAVYYCARLGLWFGEYQYYFDYWGQGTLVTVSS
VL: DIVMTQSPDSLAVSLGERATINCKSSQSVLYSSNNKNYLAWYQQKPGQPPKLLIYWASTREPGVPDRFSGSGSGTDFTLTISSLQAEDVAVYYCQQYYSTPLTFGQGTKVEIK
notes: scFv in periplasmic extract, V5 tag
B2: GITR-Mab-10 scFv (scFv, V domains shown)
VH: QVQLVQSGAEVKKPGASVKVSCKASGYTFTSNYMHWVRQAPGQGLEWMGWMNPNSGNTAYAQKFQGRVTMTRDTSTSTVYMELSSLRSEDTAVYYCARGRGGQLLFDYWGQGTLVTVSS
VL: DIQMTQSPSSLSASVGDRVTITCRASQGISSWLAWYQQKPGKAPKLLIYAASTLQSGVPSRFSGSGSGTDFTLTISSLQPEDFATYYCQQYNSYSTFGQGTKVEIK
notes: as for B1
B3: GITR-Mab-11 scFv (scFv, V domains shown)
VH: QVQLVQSGAEVKKPGASVKVSCKASGGTFSNYGISWVRQAPGQGLEWMGIINPTDGSTTYAQKFQGRVTMTRDTSTSTVYMELSSLRSEDTAVYYCARWWGSGWSWYFDLWGRGTLVTVSS
VL: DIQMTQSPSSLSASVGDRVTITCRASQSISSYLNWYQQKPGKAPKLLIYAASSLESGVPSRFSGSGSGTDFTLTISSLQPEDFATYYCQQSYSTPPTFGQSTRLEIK
notes: as for B1
B4: GITR-Mab-3 scFv (scFv, V domains shown)
VH: QVQLVQSGAEVKKPGASVKVSCKASGYTFTSYDINWVRQAPGQGLEWMGWISGYNGNTNYAQKFQGRVTMTRDTSTSTVYMELSSLRSEDTAVYYCARSHEYYYYYGMDVWGQGTLVTVSS
VL: EIVMTQSPATLSVSPGERATLSCRASQSVSSSYLAWYQQKPGQAPRLLIYGASTRATGIPARFSGSGSGTEFTLTISSLQSEDFAVYYCQQYYTTPFTFGPGTKVDIK
notes: as for B1
B5: GITR-Mab-48 scFv (scFv, V domains shown)
VH: QVQLVQSGAEVKKPGASVKVSCKASGYSFTSHDIDWVRQAPGQGLEWMGWINPNSGGTNYAQKFQGRVTMTRDTSTSTVYMELSSLRSEDTAVYYCARIRGYYGSGSYHDAFDIWGQGTTVTVSS
VL: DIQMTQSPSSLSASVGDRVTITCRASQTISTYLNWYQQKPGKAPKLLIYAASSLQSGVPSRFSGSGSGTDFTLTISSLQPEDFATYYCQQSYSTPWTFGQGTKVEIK
notes: as for B1
B6: GITR-Mab-8 scFv (scFv, V domains shown)
VH: QVQLVQSGAEVKKPGASVKVSCKASGGTFSSYVISWVRQAPGQGLEWMGWMNPGSGNTGYAQKFQGRVTMTRDTSTSTVYMELSSLRSEDTAVYYCITDSEDDYWGQGTLVTVSS
VL: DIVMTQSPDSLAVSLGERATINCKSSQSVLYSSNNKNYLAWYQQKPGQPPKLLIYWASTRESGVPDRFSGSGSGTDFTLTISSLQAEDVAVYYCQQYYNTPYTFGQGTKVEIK
notes: as for B1
B7: GITR-Mab-9 scFv (scFv, V domains shown)
VH: QVQLVQSGAEVKKPGASVKVSCKASGHTFTSQYMHWVRQAPGQGLEWVGVINPNDGSTSYAQKFQGRVTMTRDTSTSTVYMELSSLRSEDTAVYYCARDGAYYYDSSGYYRSSNFDYWGQGTLVTVSS
VL: DIQMTQSPSSLSASVGDRVTITCQASQDIGNYLNWYQQKPGKAPKLLIYGASNLETGVPSRFSGSGSGTDFTLTISSLQPEDFATYYCQQGYSFPLTFGQGTKVEIK
notes: as for B1
B8: GITR-Mab-5 scFv (scFv, V domains shown)
VH: EVQLLESGGGLVQPGGSLRLSCAASGFTFDAYAMHWVRQAPGKGLEWVSAIGTGGDTYYADSVKGRFTISRDNSKNTLYLQMNSLRAEDTAVYYCARDLYGSGSPQYYYYYGMDVWGQGTTVTVSS
VL: DIQMTQSPSSLSASVGDRVTITCRASQGIKNDLGWYQQKPGKAPKLLIYAASSLQSGVPSRFSGSGSGTDFTLTISSLQPEDFATYYCQQSYSVPFTFGQGTKVEIK
notes: as for B1
B9: GITR-Mab-7 scFv (scFv, V domains shown)
VH: QVQLVQSGAEVKKPGASVKVSCKASGGTSSTYAVTWVRQAPGQGLEWMGVINPNDGSTTYAQNFQGRVTMTRDTSTSTVYMELSSLRSEDTAVYYCARWTPLFGVVIPDYYYYGMDVWGQGTLVTVSS
VL: DIQMTQSPSSLSASVGDRVTITCQASQDISNYLNWYQQKPGKAPKLLIYAASSLQSGVPSRFSGSGSGTDFTLTISSLQPEDFATYYCQQSYSTPPTFGQGTRLEIK
notes: as for B1
B10: GITR-Mab-26 scFv (scFv, V domains shown)
VH: QVQLVQSGAEVKKPGASVKVSCKASGYTFTSYGISWVRQAPGQGLEWMGWMNPNNGNTVYAQKFQGRVTMTRDTSTSTVYMELSSLRSEDTAVYYCAKDSDWYGAFDIWGQGTMVTVSS
VL: DIQMTQSPSSLSASVGDRVTITCQASQSISRWLAWYQQKPGKAPKLLIYSASSLQSGVPSRFSGSGSGTDFTLTISSLQPEDFATYYCQQSYSTPWTFGQGTKLEIK
notes: as for B1
B11: GITR-Mab-23 scFv (scFv, V domains shown)
VH: EVQLLESGGGLVQPGGSLRLSCAASGFPFSTYAIHWVRQAPGKGLEWVSAISGSGGSTYYADSVKGRFTISRDNSKNTLYLQMNSLRAEDTAVYYCAGPDWYFDLWGRGTLVTVSS
VL: DIQMTQSPSSLSASVGDRVTITCRASQAISNSLAWYQQKPGKAPKLLIYAASTLQRGVPSRFSGSGSGTDFTLTISSLQPEDFATYYCQQYYSTPYTFGQGTKLEIK
notes: as for B1
B12: GITR-Mab-25 scFv (scFv, V domains shown)
VH: QVQLVQSGAEVKKPGASVKVSCKASGGTFSSYAISWVRQAPGQGLEWMGWVSGYNGNANYAQKFQGRVTMTRDTSTSTVYMELSSLRSEDTAVYYCARDRVESGYSYHDAFDIWGQGTMVTVSS
VL: DIQMTQSPSSLSASVGDRVTITCRTSQSIRRYLNWYQQKPGKAPKLLIYAASSLQSGVPSRFSGSGSGTDFTLTISSLQPEDFATYYCQQSYSIPWTFGPGTKVDIK
notes: as for B1
B13: GITR-Mab-2 scFv (scFv, V domains shown)
VH: QVQLVQSGAEVKKPGSSVKVSCKASGYRFTGYHLHWVRQAPGQGLEWMGGIIPIFGTANYAQKFQGRVTITADKSTSTAYMELSSLRSEDTAVYYCAYGVPPDPWGQGTLVTVSS
VL: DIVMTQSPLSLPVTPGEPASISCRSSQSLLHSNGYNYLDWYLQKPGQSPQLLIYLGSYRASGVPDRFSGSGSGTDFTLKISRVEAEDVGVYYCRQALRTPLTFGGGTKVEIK
notes: as for B1
B14: GITR-Mab-6 scFv (scFv, V domains shown)
VH: QVQLVQSGAEVKKPGASVKVSCKASGYAFTAYYLHWVRQAPGQGLEWMGWMNPNSGNTGYAQKFQGRVTMTRDTSTSTVYMELSSLRSEDTAVYYCAREGWGYYDGGFDPWGQGTLVTVSS
VL: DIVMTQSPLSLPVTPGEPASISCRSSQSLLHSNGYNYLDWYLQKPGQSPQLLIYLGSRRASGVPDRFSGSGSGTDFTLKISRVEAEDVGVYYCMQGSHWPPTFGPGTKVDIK
notes: as for B1

Key:
[1] = target: T1, human His6-GITR; assay: CARTERRA LSA, scFv periplasmic extract
[2] = target: T1, human His6-GITR; assay: ELISA, scFv periplasmic extract on coated His6-GITR
Procedure: (§1) The SuperHuman-2.0 scFv Antibody Library (available from Distributed Bio, South San Francisco, Calif.) was used to perform selection with human, cynomolgus or mouse GITR proteins. Selected phage clones from overnight growth were inoculated into wells in 96 well deep well plates containing 1 mL of medium. scFv expression was induced by addition of IPTG (Teknova) to a final concentration of 1 mM. Plates were grown overnight after induction. To prepare periplasmic extracts (PPE), the plates containing the phage clones were centrifuged at 2500 rpm for 10 min, the supernatant discarded and then pellets treated with 75 μL of cold periplasmic extract buffer with appropriate concentration of protease inhibitors (Complete Mini, EDTA-free -Roche Applied Biosciences—Cat No 1836170). After shaking at room temperature for 10 min, 225 μL of cold ddH2O with added protease inhibitor (1 tablet/50 mL) was added per well and mixed by pipetting up and down. PPE extraction was completed by incubation at room temperature for an additional 1 hr. The plates were then centrifuged at 4000 rpm for 20 minutes and 200 μL of PPE supernatant was collected from each well and transferred to a new plate which was then blocked with equal volume of 4% milk (2% final) to prepare blocked PPE extracts. In the meantime, Maxisorp plates (Nunc 442404) coated with relevant antigen (human, mouse or cynomolgus monkey His6-GITR) at 50 μl/well of 1 μg/mL antigen or 2% BSA in PBS as control were prepared for ELISA analyses. Next, 50 μL of each blocked PPE extract was transferred to the pre-blocked ELISA plates coated with the relevant antigens. After incubation and washing 3× with PBS, 50 μL of anti-V5 tag antibody (tag included in the phage display constructs, Invitrogen Cat No R960-25) at 1:5000 dilution in 2% milk was added and the plates were incubated for 1 hr. […] After further washing 3× with PBST, 50 μl/well of TMB substrate was added and the plates were developed until positive controls were visible. The reaction was stopped with 50 μl/well of 2N H2SO4. Plates were read at 450 nm to determine ELISA signal from bound PPE derived scFv.

[3] = target: T2, mouse His6-GITR; assay: as above
Procedure: as §1

[4] = target: T3, cynomolgus monkey His6-GITR; assay: as above
Procedure: as §1

| Binder | Kd [1] [nM] | hGITR-His/BKG [2] [fold over background] | mGITR-His/BKG [3] [fold over background] | cGITR-His/BKG [4] [fold over background] |
| --- | --- | --- | --- | --- |
| B1 | 24.5 | 18.9 | 1.1 |  |
| B2 | 5.3 | 34.2 | 1.1 | 29.4 |
| B3 | 1.4 | 21.8 | 1.1 | 15.6 |
| B4 | 10.5 | 12.1 | 1 | 11.1 |
| B5 |  | 9.4 | 9.5 | 8.9 |
| B6 | 49.6 | 9.6 | 1.4 | 16.1 |
| B7 | 3.3 | 12.8 | 1.1 | 11.6 |
| B8 | 8.3 | 16.3 | 1.2 | 8 |
| B9 | 11.5 | 16.4 | 1 | 9 |
| B10 |  | 12.7 | 1.1 | 0.8 |
| B11 |  | 35.6 | 0.9 | 23.2 |
| B12 |  | 22.2 | 1.1 | 1.1 |
| B13 | 16.3 | 20.1 | 1.1 | 25.2 |
| B14 | 0.1 | 35.8 | 1 | 7.5 |
